Experimental data taken from US20240417436A1 (BRIGHT PEAK THERAPEUTICS, published 2024).
Primed or numbered codes have the meaning given here. [ ]: non-standard residue; d: D form. Ygp″ = O-(PEG8-amino)-tyrosine (O-(8x polyethylene glycol-amino)-tyrosine); Yn3″ = O-(PEG9-azido)-tyrosine (O-(9x polyethylene glycol-azido)-tyrosine); Ygp = O-(8x polyethylene glycol-amino)-tyrosine; Yn3 = O-(9x polyethylene glycol-azido)-tyrosine; hSer = N[C@@H](CCO)C(=O)O; Nle = CCCC[C@H](N)C(=O)O

T1: IL-2 receptor βγ complex on pan T cells (human, UniProt P14784 27-551; P31785 23-369)
T1 sequence (looked up) 1: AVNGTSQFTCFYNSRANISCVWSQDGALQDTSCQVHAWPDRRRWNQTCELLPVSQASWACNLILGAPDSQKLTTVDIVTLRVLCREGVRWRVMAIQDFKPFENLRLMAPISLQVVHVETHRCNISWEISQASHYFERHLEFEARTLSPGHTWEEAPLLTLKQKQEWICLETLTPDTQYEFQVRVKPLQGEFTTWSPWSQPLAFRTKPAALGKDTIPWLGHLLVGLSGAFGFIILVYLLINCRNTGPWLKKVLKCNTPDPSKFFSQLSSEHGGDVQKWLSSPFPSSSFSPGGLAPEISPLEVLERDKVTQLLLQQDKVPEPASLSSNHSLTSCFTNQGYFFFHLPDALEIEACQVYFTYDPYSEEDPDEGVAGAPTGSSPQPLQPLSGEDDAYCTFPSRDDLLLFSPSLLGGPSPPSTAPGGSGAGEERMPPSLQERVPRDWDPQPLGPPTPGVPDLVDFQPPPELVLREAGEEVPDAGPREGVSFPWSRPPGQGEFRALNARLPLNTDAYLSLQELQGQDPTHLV
T1 sequence (looked up) 2: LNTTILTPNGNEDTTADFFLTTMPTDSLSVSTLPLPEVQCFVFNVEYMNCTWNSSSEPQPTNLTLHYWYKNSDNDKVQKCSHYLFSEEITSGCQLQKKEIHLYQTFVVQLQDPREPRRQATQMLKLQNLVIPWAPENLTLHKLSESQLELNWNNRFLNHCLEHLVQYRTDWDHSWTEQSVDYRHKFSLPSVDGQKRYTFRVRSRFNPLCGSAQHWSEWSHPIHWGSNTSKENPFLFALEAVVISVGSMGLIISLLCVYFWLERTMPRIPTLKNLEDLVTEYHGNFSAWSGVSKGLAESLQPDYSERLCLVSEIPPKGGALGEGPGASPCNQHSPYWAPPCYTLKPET

B1: CMP-119, MMP2 cleaved (ligand)
chain: APTSSSTKKTQLQLEHLLLDLQKILNGINNYKNPKLTR[Nle]L[hSer][Yn3″]KF[Ygp″][Nle]PKKATELKHLQCLEEELKPLEEVL[hSer]LAQSKNFHLRPRDLISNINVIVLELKGSETTF[hSer]CEYADETATIVEFLNRWITFSQSIISTLT
modifications: ends and bridges not checked; also: Lys23 side chain attached to cleavable peptide, MMP2-cleaved, remnant stays attached, cut site not given here
B2: CMP-123, MMP2 cleaved (ligand)
chain: APTSSSTKKTQLQLEHLLLDLQKILNGINNYKNPKLTR[Nle]L[hSer][Yn3″]KF[Ygp″][Nle]PKKATELKHLQCLEEELKPLEEVL[hSer]LAQSKNFHLRPRDLISNINVIVLELKGSETTF[hSer]CEYADETATIVEFLNRWITFSQSIISTLT
modifications: ends and bridges not checked; also: Lys23 side chain attached via PEG9 to cleavable peptide, MMP2-cleaved, remnant stays attached, cut site not given here
B3: CMP-126, MMP2 cleaved (ligand)
chain: APTSSSTKKTQLQLEHLLLDLQKILNGINNYKNPKLTR[Nle]L[hSer][Yn3″]KF[Ygp″][Nle]PKKATELKHLQCLEEELKPLEEVL[hSer]LAQSKNFHLRPRDLISNINVIVLELKGSETTF[hSer]CEYADETATIVEFLNRWITFSQSIISTLT
modifications: ends and bridges not checked; also: Lys23 side chain attached to cleavable peptide, MMP2-cleaved, remnant stays attached, cut site not given here
B4: CMP-120, MMP2 cleaved (ligand)
chain: APTSSSTKKTQLQLEHLLLDLQKILNGINNYKNPKLTR[Nle]L[hSer][Yn3″]KF[Ygp″][Nle]PKKATELKHLQCLEEELKPLEEVL[hSer]LAQSKNFHLRPRDLISNINVIVLELKGSETTF[hSer]CEYADETATIVEFLNRWITFSQSIISTLT
modifications: ends and bridges not checked; also: Lys23 side chain attached to cleavable peptide, MMP2-cleaved, remnant stays attached, cut site not given here
B5: CMP-129, MMP2 cleaved (ligand)
chain: APTSSSTKKTQLQLEHLLLDLQKILNGINNYKNPKLTR[Nle]L[hSer][Yn3″]KF[Ygp″][Nle]PKKATELKHLQCLEEELKPLEEVL[hSer]LAQSKNFHLRPRDLISNINVIVLELKGSETTF[hSer]CEYADETATIVEFLNRWITFSQSIISTLT
modifications: ends and bridges not checked; also: Lys23 side chain attached via PEG9 to cleavable peptide, MMP2-cleaved, remnant stays attached, cut site not given here
B6: CMP-128, MMP2 cleaved (ligand)
chain: APTSSSTKKTQLQLEHLLLDLQKILNGINNYKNPKLTR[Nle]L[hSer][Yn3″]KF[Ygp″][Nle]PKKATELKHLQCLEEELKPLEEVL[hSer]LAQSKNFHLRPRDLISNINVIVLELKGSETTF[hSer]CEYADETATIVEFLNRWITFSQSIISTLT
modifications: ends and bridges not checked; also: Lys23 side chain attached via PEG9 to cleavable peptide, MMP2-cleaved, remnant stays attached, cut site not given here
B7: CMP-124, MMP2 cleaved (ligand)
chain: APTSSSTKKTQLQLEHLLLDLQKILNGINNYKNPKLTR[Nle]L[hSer][Yn3″]KF[Ygp″][Nle]PKKATELKHLQCLEEELKPLEEVL[hSer]LAQSKNFHLRPRDLISNINVIVLELKGSETTF[hSer]CEYADETATIVEFLNRWITFSQSIISTLT
modifications: ends and bridges not checked; also: Lys23 side chain attached to cleavable peptide, MMP2-cleaved, remnant stays attached, cut site not given here
B8: CMP-118, MMP2 cleaved (ligand)
chain: APTSSSTKKTQLQLEHLLLDLQKILNGINNYKNPKLTR[Nle]L[hSer][Yn3″]KF[Ygp″][Nle]PKKATELKHLQCLEEELKPLEEVL[hSer]LAQSKNFHLRPRDLISNINVIVLELKGSETTF[hSer]CEYADETATIVEFLNRWITFSQSIISTLT
modifications: ends and bridges not checked; also: Lys23 side chain attached to cleavable peptide, MMP2-cleaved, remnant stays attached, cut site not given here
B9: CMP-125, MMP2 cleaved (ligand)
chain: APTSSSTKKTQLQLEHLLLDLQKILNGINNYKNPKLTR[Nle]L[hSer][Yn3″]KF[Ygp″][Nle]PKKATELKHLQCLEEELKPLEEVL[hSer]LAQSKNFHLRPRDLISNINVIVLELKGSETTF[hSer]CEYADETATIVEFLNRWITFSQSIISTLT
modifications: ends and bridges not checked; also: cleavable moiety on Lys23 side chain, not given here
B10: CMP-122, MMP2 cleaved (ligand)
chain: APTSSSTKKTQLQLEHLLLDLQKILNGINNYKNPKLTR[Nle]L[hSer][Yn3″]KF[Ygp″][Nle]PKKATELKHLQCLEEELKPLEEVL[hSer]LAQSKNFHLRPRDLISNINVIVLELKGSETTF[hSer]CEYADETATIVEFLNRWITFSQSIISTLT
modifications: ends and bridges not checked; also: Lys23 side chain attached via PEG9 to cleavable peptide, MMP2-cleaved, remnant stays attached, cut site not given here
B11: CMP-127, MMP2 cleaved (ligand)
chain: APTSSSTKKTQLQLEHLLLDLQKILNGINNYKNPKLTR[Nle]L[hSer][Yn3″]KF[Ygp″][Nle]PKKATELKHLQCLEEELKPLEEVL[hSer]LAQSKNFHLRPRDLISNINVIVLELKGSETTF[hSer]CEYADETATIVEFLNRWITFSQSIISTLT
modifications: ends and bridges not checked; also: Lys23 side chain attached via PEG9 to cleavable peptide, MMP2-cleaved, remnant stays attached, cut site not given here
B12: CMP-141, MMP2 cleaved (ligand)
chain: APTSSSTKKTQLQLEHLLLDLQKILNGINNYKNPKLTR[Nle]L[hSer][Yn3]KF[Ygp][Nle]PKKATELKHLQCLEEELKPLEEVL[hSer]LAQSKNFHLRPRDLISNINVIVLELKGSETTF[hSer]CEYADETATIVEFLNRWITFSQSIISTLT
modifications: not fully specified (residue 23); ends and bridges not checked; also: MMP2-cleaved, remnant of moiety on Lys23 side chain, not given here

target: T1, IL-2 receptor βγ complex on pan T cells; test: cell-based or functional assay

| Average EC50, pSTAT5 assay in pan T cells, MMP2 cleaved molecule [nM] | Binder |
| --- | --- |
| 0.63 | B1 |
| 2.93 | B2 |
| 2.03 | B3 |
| 0.7 | B4 |
| 1.4 | B5 |
| 3.68 | B6 |
| 2.07 | B7 |
| 0.9 | B8 |
| 1.73 | B9 |
| 3.55 | B10 |
| 2.43 | B11 |
| 0.8 | B12 |
